Assay results: patent EP3470429A1 (Numab Innovation AG, dated 2019)
One block for each binder: values may come before it.

Columns and labels:
[1] = target: T1, human PD-L1 expressed on cells (human, UniProt Q9NZQ7 19-290); assay: cell-based or functional assay
[2] = target: T2, mouse serum albumin (mouse, UniProt P07724 25-608); assay: assay not given
T2 construct: also called MSA

[3] = target: T3, human serum albumin (human, UniProt P02768 25-609); assay: SPR Biacore T200, SA amine-coupled to CM5 chip, pH 5.5
T3 construct: also called HSA; human SA

[4] = target: T4, recombinant human PDL1 extracellular domain (human, UniProt Q9NZQ7 19-238); assay: competition ELISA, PD-1 coated, biotinylated PD-L1 in solution, with HSA
T4 construct: also called hPDL1; hPDL1 ECD

[5] = target: T1, human PD-L1 expressed on cells; assay: cell-based or functional assay; remark: listed apart in the source
[6] = target: T1, human PD-L1 expressed on cells; assay: cell-based or functional assay; remark: listed apart in the source
[7] = target: T1, human PD-L1 expressed on cells; assay: cell-based or functional assay; remark: listed apart in the source
[8] = target: T5, human PD-L1-Fc chimeric protein (human, UniProt Q9NZQ7 19-238); assay: SPR Biacore T200, PD-L1-Fc captured by anti-human Fc
T5 construct: not shown: Fc part, captured by an anti-human IgG Fc antibody

[9] = target: human CD137-Fc chimeric protein (human) (UniProt Q07011); assay: SPR Biacore T200, CD137-Fc captured by anti-human Fc
Sequence of human CD137-Fc chimeric protein (human) (Q07011 24-186 limits assumed, change not shown): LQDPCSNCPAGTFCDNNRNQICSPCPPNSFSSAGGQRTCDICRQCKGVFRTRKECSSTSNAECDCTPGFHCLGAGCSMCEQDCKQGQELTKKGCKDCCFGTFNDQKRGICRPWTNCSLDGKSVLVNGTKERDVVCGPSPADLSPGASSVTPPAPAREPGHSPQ

T2 sequence (P07724 25-608 limits assumed): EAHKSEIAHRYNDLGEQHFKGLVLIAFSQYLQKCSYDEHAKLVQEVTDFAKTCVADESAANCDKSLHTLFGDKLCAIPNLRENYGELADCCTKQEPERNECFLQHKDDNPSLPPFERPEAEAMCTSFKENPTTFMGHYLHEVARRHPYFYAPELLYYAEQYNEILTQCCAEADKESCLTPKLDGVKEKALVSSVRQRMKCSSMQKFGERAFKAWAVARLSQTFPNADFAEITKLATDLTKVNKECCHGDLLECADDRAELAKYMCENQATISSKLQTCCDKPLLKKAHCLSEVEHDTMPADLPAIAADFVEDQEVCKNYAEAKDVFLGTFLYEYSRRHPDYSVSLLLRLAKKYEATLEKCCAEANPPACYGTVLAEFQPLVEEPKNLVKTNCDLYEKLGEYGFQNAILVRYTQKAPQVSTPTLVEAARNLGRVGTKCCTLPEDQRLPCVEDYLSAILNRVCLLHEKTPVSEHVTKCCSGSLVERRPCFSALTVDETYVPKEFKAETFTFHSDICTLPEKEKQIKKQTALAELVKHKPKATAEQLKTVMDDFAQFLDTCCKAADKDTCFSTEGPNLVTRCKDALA

IC50 (ng/ml), NF-AT Potency assay, with HSA [1]: 665 ng/mL | binding result [2]: binds | binding result [3]: binds | fold higher IC50 in presence of human serum albumin [4]: ~2 fold
B1: PRO1057 (other)
chain: DIQMTQSPSSLSASVGDRVTITCQASQSINDYLAWYQQKPGKAPKLLIYKASTLASGVPSRFSGSGSGTDFTLTISSLQPEDFATYYCQQGYIITDIDNVFGTGTKVTVLGGGGGSQVQLQESGPGLVKPSETLSLTCKVSGFSFSNSYWICWIRQPPGKGLEWIGCTFVGSSDSTYYANWAKGRVTISVDSSKNQFSLKLSSVTAADTAVYYCARHPSDAVYGYANNLWGQGTLVTVSSGGGGSGGGGSGGGGSGGGGSIQMTQSPSSLSASVGDRVTITCQASQSINNVLAWYQQKPGKAPKLLIYRASTLASGVPSRFSGSGSGTDFTLTISSLQPEDFATYYCQSSYGNYGDFGTGTKVTVLGGGGGSQVQLQESGPGLVKPSETLSLTCKVSGFSFSSGYDMCWIRQPPGKGLEWIGCVVAGSVDITYYASWAKGRVTISVDSSKNQFSLKLSSVTAADTAVYYCARKDAYSDAFNLWGQGTLVTVSSGGGGSGGGGSVVMTQSPSSLSASVGDRVTITCQASQIISSRSAWYQQKPGQPPKLLIYQASKLASGVPSRFSGSGSGTDFTLTISSLQPEDFATYYCQCTYIDSNFGAFGGGTKLTVLGGGGGSGGGGSGGGGSGGGGSEVQLVESGGGLVQPGGSLRLSCAASGFSFSSSYWICWVRQAPGKGLEWVGCVFTGDGTTYYASWAKGRFTISRDNSKNTVYLQMNSLRAEDTATYFCARPVSVYYYGMDLWGQGTLVTVSS
notes: also called 38_02_A04 sc01 scDb-i/33-03-G02 sc01 scDb-o/mxr HSA (23-13-A01-sc03, sk17sh4)

IC50 (ng/ml), NF-AT Potency assay [1]: 137 ng/mL | EC50 (ng/ml) of IL-2 secretion, PBMC with CHO cells expressing PD-L1; 1 ug/ml anti-CD3, 50000 CHO cells/well [5]: 12.8 ng/mL | EC50 (ng/ml) of IL-2 secretion, PBMC with CHO cells expressing PD-L1; 1 ug/ml anti-CD3, 100000 CHO cells/well [5]: 86.2 ng/mL | EC50 (ng/ml) of IL-2 secretion, PBMC with CHO cells expressing PD-L1; 1 ug/ml anti-CD3, 200000 CHO cells/well [5]: 80.6 ng/mL | EC50 (ng/ml) of IL-2 secretion, PBMC with CHO cells expressing PD-L1; 2 ug/ml anti-CD3, 50000 CHO cells/well [5]: 52 ng/mL | EC50 (ng/ml) of IL-2 secretion, PBMC with CHO cells expressing PD-L1; 2 ug/ml anti-CD3, 100000 CHO cells/well [5]: 41.9 ng/mL | EC50 (ng/ml) of IL-2 secretion, PBMC with CHO cells expressing PD-L1; 2 ug/ml anti-CD3, 200000 CHO cells/well [5]: 30.1 ng/mL | EC50 in ng/ml of IL-2 secretion, PBMC assay using SEA stimulation [6]: 39.9 ng/mL
B2: PRO885 (bispecific antibody)
chain: DIQMTQSPSSLSASVGDRVTITCQASQSINDYLAWYQQKPGKAPKLLIYKASTLASGVPSRFSGSGSGTDFTLTISSLQPEDFATYYCQQGYIITDIDNVFGTGTKVTVLGGGGGSQVQLQESGPGLVKPSETLSLTCKVSGFSFSNSYWICWIRQPPGKGLEWIGCTFVGSSDSTYYANWAKGRVTISVDSSKNQFSLKLSSVTAADTAVYYCARHPSDAVYGYANNLWGQGTLVTVSSGGGGSGGGGSGGGGSGGGGSIQMTQSPSSLSASVGDRVTITCQASQSINNVLAWYQQKPGKAPKLLIYRASTLASGVPSRFSGSGSGTDFTLTISSLQPEDFATYYCQSSYGNYGDFGTGTKVTVLGGGGGSQVQLQESGPGLVKPSETLSLTCKVSGFSFSSGYDMCWIRQPPGKGLEWIGCVVAGSVDITYYASWAKGRVTISVDSSKNQFSLKLSSVTAADTAVYYCARKDAYSDAFNLWGQGTLVTVSS

IC50, NFAT reporter gene assay [7]: 0.0481 µg/mL | fold improvement of neutralization potency against PRO885 [7]: 3 fold | fold improvement in affinity compared to the CDR graft (PRO885) [8]: 20 fold
B3: PRO1126 (bispecific antibody)
chain: DFQLTQSPSSLSASVGDRVTITCQASQSINDYLAWYQQKPGKSPKLLIYKASTLASGVPSRFSGSGSGTDFTLTISSLQPEDFATYYCQQGYIITDIDNVFGTGTKVTVLGGGGGSQVQLQESGPGLVKPSETLSLTCKVSGFSFSNSYWICWIRQPPGKGLEWIGCTFVGSSDSTYYANWAKGRVTISVDSSKNQFSLKLSSVTAADTAVYYCARHPSDAVYGYANNLWGQGTLVTVSSGGGGSGGGGSGGGGSGGGGSIQMTQSPSSLSASVGDRVTITCQASQSINNVLAWYQQKPGKAPKLLIYRASTLASGVPSRFSGSGSGTDFTLTISSLQPEDFATYYCQSSYGNYGDFGTGTKVTVLGGGGGSQSQLQESGPGLVKPSETLSLTCKASGFSFSSGYDMCWVRQPPGKGLEWIACVVAGSVDITYYASWAKGRVTISKDSSKNQVSLKLSSVTAADTAVYFCARKDAYSDAFNLWGQGTLVTVSS

fold improvement of affinity compared to PRO885 [9]: > 200 fold | binding result [8]: binds
B4: PRO1124 (bispecific antibody)
chain: DIQMTQSPSSLSASVGDRVTITCQASQSINDYLAWYQQKPGKAPKLLIYKASTLASGVPSRFSGSGSGTDFTLTISSLQPEDFATYYCQQGYIITDIDNVFGTGTKVTVLGGGGGSQVQLQESGPGLVKPSETLSLTCKASGFSFSNSYWICWVRQPPGKGLEWIGCTFVGSSDSTYYANWAKGRVTISKDSSKNQVSLKLSSVTAADTAVYFCARHPSDAVYGYANNLWGQGTLVTVSSGGGGSGGGGSGGGGSGGGGSLQMTQSPSSLSASVGDRVTITCQASQSINNVLAWYQQKPGKPPKLLIYRASTLASGVPSRFSGSGSGTDFTLTISSLQPEDFATYYCQSSYGNYGDFGTGTKVTVLGGGGGSQVQLQESGPGLVKPSETLSLTCKVSGFSFSSGYDMCWIRQPPGKGLEWIGCVVAGSVDITYYASWAKGRVTISVDSSKNQFSLKLSSVTAADTAVYYCARKDAYSDAFNLWGQGTLVTVSS
notes: also called 38-02-A04 sc06 Full scDb-i/33_03_G02 sc01 scDb-o

binding result [8]: binds | binding result [3]: binds
B5: PRO1058 (other)
chain: DIQMTQSPSSLSASVGDRVTITCQASQSINDYLAWYQQKPGKAPKLLIYKASTLASGVPSRFSGSGSGTDFTLTISSLQPEDFATYYCQQGYIITDIDNVFGTGTKVTVLGGGGGSQVQLQESGPGLVKPSETLSLTCKVSGFSFNNDYDMCWIRQPPGKGLEWIGCIDTGDGSTYYASWAKGRVTISVDSSKNQFSLKLSSVTAADTAVYYCAREAASSSGYGMGYFDLWGQGTLVTVSSGGGGSGGGGSGGGGSGGGGSIQMTQSPSSLSASVGDRVTITCQSSQSVYDNNWLAWYQQKPGKAPKLLIYRASNLASGVPSRFSGSGSGTDFTLTISSLQPEDFATYYCQGTYLSSNWYWAFGTGTKVTVLGGGGGSQVQLQESGPGLVKPSETLSLTCKVSGFSFSSGYDMCWIRQPPGKGLEWIGCVVAGSVDITYYASWAKGRVTISVDSSKNQFSLKLSSVTAADTAVYYCARKDAYSDAFNLWGQGTLVTVSSGGGGSGGGGSVVMTQSPSSLSASVGDRVTITCQASQIISSRSAWYQQKPGQPPKLLIYQASKLASGVPSRFSGSGSGTDFTLTISSLQPEDFATYYCQCTYIDSNFGAFGGGTKLTVLGGGGGSGGGGSGGGGSGGGGSEVQLVESGGGLVQPGGSLRLSCAASGFSFSSSYWICWVRQAPGKGLEWVGCVFTGDGTTYYASWAKGRFTISRDNSKNTVYLQMNSLRAEDTATYFCARPVSVYYYGMDLWGQGTLVTVSS
notes: also called 38_27_C05 sc01 scDb-i/33-03-G02 sc01 scDb-o/mxr HSA (23-13-A01-sc03,sk17sh4)

IC50 (ng/ml), NF-AT Potency assay [1]: 11.1 ng/mL | EC50 in ng/ml of IL-2 secretion, PBMC assay using SEA stimulation [6]: 40.9 ng/mL
B6: PRO997 (scFv)
scFv: DIQMTQSPSSLSASVGDRVTITCQASQSIGTYLAWYQQKPGKAPKLLIYRAFILASGVPSRFSGSGSGTDFTLTISSLQPEDFATYYCQSNFYSDSTTIGPNAFGTGTKVTVLGGGGGSGGGGSGGGGSGGGGSQVQLQESGPGLVKPSETLSLTCKVSGFSFNSDYWIYWIRQPPGKGLEWIGSIYGGSSGNTQYASWAQGRVTISVDSSKNQFSLKLSSVTAADTAVYYCARGYVDYGGATDLWGQGTLVTVSS

binding result [8]: binds | binding result [3]: binds
B7: PRO966 (other)
chain: DIQMTQSPSSLSASVGDRVTITCQASQSINDYLAWYQQKPGKAPKLLIYKASTLASGVPSRFSGSGSGTDFTLTISSLQPEDFATYYCQQGYIITDIDNVFGTGTKVTVLGGGGGSQVQLQESGPGLVKPSETLSLTCKVSGFSFNNDYDMCWIRQPPGKGLEWIGCIDTGDGSTYYASWAKGRVTISVDSSKNQFSLKLSSVTAADTAVYYCAREAASSSGYGMGYFDLWGQGTLVTVSSGGGGSGGGGSGGGGSGGGGSIQMTQSPSSLSASVGDRVTITCQSSQSVYDNNWLAWYQQKPGKAPKLLIYRASNLASGVPSRFSGSGSGTDFTLTISSLQPEDFATYYCQGTYLSSNWYWAFGTGTKVTVLGGGGGSQVQLQESGPGLVKPSETLSLTCKVSGFSFSSGYDMCWIRQPPGKGLEWIGCVVAGSVDITYYASWAKGRVTISVDSSKNQFSLKLSSVTAADTAVYYCARKDAYSDAFNLWGQGTLVTVSSGGGGSGGGGSIQMTQSPSSLSASVGDRVTITCQSSESVYSNNQLSWYQQKPGQPPKLLIYDASDLASGVPSRFSGSGSGTDFTLTISSLQPEDFATYYCAGGFSSSSDTAFGGGTKLTVLGGGGGSGGGGSGGGGSGGGGSEVQLVESGGGLVQPGGSLRLSCAASGFSLSSNAMGWVRQAPGKGLEYIGIISVGGFTYYASWAKGRFTISRDNSKNTVYLQMNSLRAEDTATYFCARDRHGGDSSGAFYLWGQGTLVTVSS
notes: also called PRO1052; 38_27_C05 sc01 scDb-i/33-03-G02 sc01 scDb-o/19-01-H04-sc03 scFv
